Like-named read-outs stand apart in the source and are kept apart here.
Key:
[1] = biological target: human LAG-3 (huLAG-3), full length, expressed on the cell surface (human) (UniProt P18627)
[2] = biological target: human LAG-3 (huLAG-3), full length, expressed on the cell surface (human) (UniProt P18627); assay: method of determination not stated; legend of the FACS binding figure (293FF-LAG-3 cells, activated human T-cells)
[3] = biological target: human LAG-3 (huLAG-3), full length, expressed on the cell surface (human) (UniProt P18627); remark: listed apart in the source
[4] = biological target: human LAG-3 (huLAG-3), full length, expressed on the cell surface (human) (UniProt P18627); assay: FACS titration on activated human T cells, detection with PE-labelled anti-IgG F(ab')2 [right panel Activated T cells]

human LAG-3 (huLAG-3), full length, expressed on the cell surface (human), sequence (P18627 23-525): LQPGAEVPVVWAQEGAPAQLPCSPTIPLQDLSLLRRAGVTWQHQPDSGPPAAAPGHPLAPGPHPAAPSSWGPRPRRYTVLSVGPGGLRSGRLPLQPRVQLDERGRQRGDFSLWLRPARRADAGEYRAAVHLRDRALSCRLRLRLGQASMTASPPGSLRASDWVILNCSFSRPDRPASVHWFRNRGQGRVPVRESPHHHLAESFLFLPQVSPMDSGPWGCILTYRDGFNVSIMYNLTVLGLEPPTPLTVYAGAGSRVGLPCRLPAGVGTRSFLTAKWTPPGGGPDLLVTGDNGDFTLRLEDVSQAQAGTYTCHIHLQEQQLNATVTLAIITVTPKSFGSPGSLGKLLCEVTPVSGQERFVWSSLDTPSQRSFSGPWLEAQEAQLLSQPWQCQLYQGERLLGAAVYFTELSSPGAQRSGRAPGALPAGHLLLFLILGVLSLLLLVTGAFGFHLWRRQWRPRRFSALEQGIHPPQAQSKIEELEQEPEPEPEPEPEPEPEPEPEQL

EC50 (read off the curve) [1]: 0.1 µg/mL
Kd [2]: 200 pM
EC50 (read off the curve) [3]: 0.1 µg/mL
EC50 (read off the curve) [4]: 0.04 µg/mL
Substance: PG7431, anti-LAG-3 antibody 25F7 produced in a human IgG1 format
